Ends that are not written are not given here.
Legend:
[1] = target: T1, type II TGFβ receptor (UniProt P37173 23-567, limits assumed); experiment: GST-TRAP pull-down from lysate of cells without HIS-TRIP, Western
T1 construct: From lysate of transfected cells; also called TGFβRII; TGFβ type II receptor

[2] = target: T2, Smad 2 (UniProt Q15796 2-467, limits assumed); experiment: as above
T2 construct: Detected by a bought antibody in the pull-down

[3] = target: T3, bovine serum albumin (bovine, UniProt P02769 25-607); experiment: Far-Western, proteins on membrane probed with Clone 5 phage
T3 construct: Control; also called BSA
T3 sequence (P02769 25-607 limits assumed): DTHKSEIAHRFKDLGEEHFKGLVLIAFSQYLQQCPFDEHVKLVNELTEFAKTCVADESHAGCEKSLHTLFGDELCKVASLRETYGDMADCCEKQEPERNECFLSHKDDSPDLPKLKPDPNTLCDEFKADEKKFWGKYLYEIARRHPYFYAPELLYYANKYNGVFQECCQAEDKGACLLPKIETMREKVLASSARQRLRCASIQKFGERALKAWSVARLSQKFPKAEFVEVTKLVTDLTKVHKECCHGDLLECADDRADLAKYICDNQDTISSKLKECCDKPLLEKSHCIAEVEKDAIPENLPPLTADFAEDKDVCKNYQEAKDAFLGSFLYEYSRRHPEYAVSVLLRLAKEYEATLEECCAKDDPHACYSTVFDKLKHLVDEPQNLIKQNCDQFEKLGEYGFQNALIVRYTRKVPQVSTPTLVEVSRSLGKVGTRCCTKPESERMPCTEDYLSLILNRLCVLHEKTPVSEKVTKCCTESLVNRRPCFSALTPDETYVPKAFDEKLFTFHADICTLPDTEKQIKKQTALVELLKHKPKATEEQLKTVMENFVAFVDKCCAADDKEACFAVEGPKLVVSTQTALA

[4] = target: T4, RNase A (UniProt P61823 27-150); experiment: as above
T4 construct: Control
T4 sequence (looked up): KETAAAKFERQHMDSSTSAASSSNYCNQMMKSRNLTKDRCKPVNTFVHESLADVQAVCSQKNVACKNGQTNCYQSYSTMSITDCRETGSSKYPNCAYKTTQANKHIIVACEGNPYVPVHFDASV

[5] = target: T5, purified type V tartrate resistant acid phosphatase (TRAP), also known as uteroferrin (UniProt P09889 22-340, limits assumed); experiment: M13 random 12-mer phage display, three rounds of bio-panning on immobilised TRAP
T5 construct: Purified protein used as immobilised bait, in ELISA, Scatchard, Far-Western and GST pull-down; also called type V TRAP; purified TRAP
T5 sequence (looked up): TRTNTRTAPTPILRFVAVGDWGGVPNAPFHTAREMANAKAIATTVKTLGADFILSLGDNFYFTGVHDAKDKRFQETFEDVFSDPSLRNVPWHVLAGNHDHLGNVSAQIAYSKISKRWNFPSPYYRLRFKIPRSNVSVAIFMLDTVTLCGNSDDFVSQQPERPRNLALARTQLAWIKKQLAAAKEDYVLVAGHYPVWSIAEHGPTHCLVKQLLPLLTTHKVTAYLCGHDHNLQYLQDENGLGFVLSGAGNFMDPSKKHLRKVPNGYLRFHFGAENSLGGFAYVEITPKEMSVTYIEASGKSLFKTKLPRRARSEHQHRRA

[6] = target: T5, purified type V tartrate resistant acid …; experiment: Scatchard-type analysis, immobilised TRAP and increasing phage titer, bound phage counted by plaque assay
[7] = target: T5, purified type V tartrate resistant acid …; experiment: modified phage ELISA on immobilised TRAP, antibody to the phage coat
[8] = target: T6, VP-16-AD-GPC412 (VP-16-AD fused to GPC4 deficient in the 12 amino acids of Clone 5) (human, UniProt O75487 19-556); experiment: mammalian two-hybrid luciferase assay
T6 construct: also called 12 amino acid deficient version of GPC4
T6 sequence: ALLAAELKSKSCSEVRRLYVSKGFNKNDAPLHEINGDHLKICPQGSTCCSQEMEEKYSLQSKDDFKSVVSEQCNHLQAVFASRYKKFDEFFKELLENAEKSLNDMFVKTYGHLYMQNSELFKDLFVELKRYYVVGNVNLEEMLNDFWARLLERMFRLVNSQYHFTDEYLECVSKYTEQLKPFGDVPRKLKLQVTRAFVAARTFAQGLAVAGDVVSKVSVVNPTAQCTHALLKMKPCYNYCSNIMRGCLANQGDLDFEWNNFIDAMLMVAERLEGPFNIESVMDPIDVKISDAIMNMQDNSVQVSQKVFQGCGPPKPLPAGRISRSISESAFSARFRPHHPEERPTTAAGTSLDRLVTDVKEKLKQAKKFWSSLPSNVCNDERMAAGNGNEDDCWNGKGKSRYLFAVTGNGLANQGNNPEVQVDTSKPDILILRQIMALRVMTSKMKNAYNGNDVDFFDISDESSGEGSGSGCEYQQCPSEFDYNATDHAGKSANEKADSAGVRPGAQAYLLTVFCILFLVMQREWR

T1 sequence (P37173 23-567 limits assumed): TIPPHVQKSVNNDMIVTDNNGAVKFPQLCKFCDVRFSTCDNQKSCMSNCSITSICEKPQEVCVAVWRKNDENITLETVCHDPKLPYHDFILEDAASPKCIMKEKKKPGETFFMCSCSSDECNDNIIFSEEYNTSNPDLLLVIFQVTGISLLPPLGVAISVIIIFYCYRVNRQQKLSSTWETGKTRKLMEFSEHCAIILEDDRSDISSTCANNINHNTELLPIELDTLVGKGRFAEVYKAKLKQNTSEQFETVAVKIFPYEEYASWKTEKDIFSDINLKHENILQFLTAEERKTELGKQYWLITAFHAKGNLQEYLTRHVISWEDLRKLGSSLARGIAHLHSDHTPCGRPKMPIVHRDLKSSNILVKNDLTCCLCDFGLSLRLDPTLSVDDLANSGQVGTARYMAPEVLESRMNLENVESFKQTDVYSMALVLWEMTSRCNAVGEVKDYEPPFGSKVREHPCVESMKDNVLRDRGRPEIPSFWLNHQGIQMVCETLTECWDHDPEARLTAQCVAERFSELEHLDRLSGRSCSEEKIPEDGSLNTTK
T2 sequence (Q15796 2-467 limits assumed): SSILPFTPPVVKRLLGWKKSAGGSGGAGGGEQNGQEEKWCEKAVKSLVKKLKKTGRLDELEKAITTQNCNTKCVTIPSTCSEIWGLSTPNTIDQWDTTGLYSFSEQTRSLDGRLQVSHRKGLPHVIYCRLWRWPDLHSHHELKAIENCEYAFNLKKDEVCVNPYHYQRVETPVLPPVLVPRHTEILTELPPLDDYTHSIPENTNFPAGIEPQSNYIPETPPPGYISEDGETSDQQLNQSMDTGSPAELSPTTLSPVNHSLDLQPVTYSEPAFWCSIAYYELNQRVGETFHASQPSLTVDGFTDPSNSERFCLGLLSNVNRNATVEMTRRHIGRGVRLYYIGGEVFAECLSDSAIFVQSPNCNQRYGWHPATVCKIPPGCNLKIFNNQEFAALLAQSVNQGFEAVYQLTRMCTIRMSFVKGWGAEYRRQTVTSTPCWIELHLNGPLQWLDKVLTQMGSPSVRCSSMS

B1: GST-TRAP fusion protein (other)
chain: ATPALRFVAVGDWGGVPNAPFHTAREMANAKEIARTVQILGADFILSLGDNFYFTGVQDINDKRFQETFEDVFSDRSLRKVPWYVLAGNHDHLGNVSAQIAYSKISKRWNFPSPFYRLHFKIPQTNVSVAIFMLDTVTLCGNSDDFLSQQPERPRDVKLARTQLSWLKKQLAAAREDYVLVAGHYPVWSIAEHGPTHCLVKQLRPLLATYGVTAYLCGHDHNLQYLQDENGVGYVLSGAGNFMDPSKRHQRKVPNGYLRFHYGTEDSLGGFAYVEISSKEMTVTYIEASGKSLFKTRLPRRARP
notes: also called 'GST' tagged TRAP; recombinant GST-TRAP; not shown: glutathione S-transferase tag (Amersham Pharmacia GST system)
Q: Does B1 bind [1]?
A: no binding

Q: Does B1 bind [2]?
A: no binding

B2: Clone 5 phage (M13 phage displaying the 12-mer TPLSYLKGLVTV) (peptide)
peptide: TPLSYLKGLVTV
modifications: also: displayed on M13 phage coat protein (protein and linker not given here)
notes: also called GPC4 phage (Clone 5); ID No. 23; not shown: M13 phage coat protein carrying the random 12-mer
Q: Does B2 bind [3]?
A: no binding (tested: 5 ug loaded)

Q: Does B2 bind [4]?
A: no binding (tested: 5 ug loaded)

Q: What about the “Fre (frequency among 44 sequenced clones after bio-panning with TRAP)” value [5] of the same binder?
A: 15 of 44 clones

Q: What about the Kd [6] of the same binder?
A: 0.11 nM

B3: M13 phage clone displaying SEQ ID NO:22 (peptide)
peptide: TPSLPPTMFRLT
notes: also called ID No. 22; not shown: M13 phage coat protein carrying the random 12-mer; not specified
Q: B3 was tested. Which “fold increase in affinity for TRAP over wild type phage” value [7] did it give?
A: 40 fold

Q: What about the “Fre (frequency among 44 sequenced clones after bio-panning with TRAP)” value [5] of the same binder?
A: 4 of 44 clones

B4: M13 phage clone displaying SEQ ID NO:21 (peptide)
peptide: SQWHPRSASYPM
notes: also called ID No. 21; not shown: M13 phage coat protein carrying the random 12-mer; not specified
Q: Which results are given for B4?
A: fold increase in affinity for TRAP over wild type phage [7]: 40 fold; Fre (frequency among 44 sequenced clones after bio-panning with TRAP) [5]: 4 of 44 clones

B5: GAL-4-BD-TRAP fusion protein (other)
chain: MKLLSSIEQACDICRLKKLKCSKEKPKCAKCLKNNWECRYSPKTKRSPLTRAHLTEVESRLERLEQLFLLIFPREDLDMILKMDSLQDIKALLTGLFVQDNVNKDAVTDRLASVETDMPLTLRQHRISATSSSEESSNKGQRQLTVSATPALRFVAVGDWGGVPNAPFHTAREMANAKEIARTVQILGADFILSLGDNFYFTGVQDINDKRFQETFEDVFSDRSLRKVPWYVLAGNHDHLGNVSAQIAYSKISKRWNFPSPFYRLHFKIPQTNVSVAIFMLDTVTLCGNSDDFLSQQPERPRDVKLARTQLSWLKKQLAAAREDYVLVAGHYPVWSIAEHGPTHCLVKQLRPLLATYGVTAYLCGHDHNLQYLQDENGVGYVLSGAGNFMDPSKRHQRKVPNGYLRFHYGTEDSLGGFAYVEISSKEMTVTYIEASGKSLFKTRLPRRARP
notes: Expressed inside transfected cells
Q: Does B5 bind [8]?
A: no binding

Reference: US20050112168A1 (UNIVERSITY OF ROCHESTER, published 2005)
